Experiment [1] addresses SHANK3 SPN-ARR (residues 1-348) (rat). In words: ITC.
Experiment [2] addresses SHANK3 SPN(R12C)-ARR mutant (rat). The experiment can be described thus: ITC. On the technique in general: ITC needs no label: the signal is the heat of the interaction.

As to “Rap1b (residues 1-166) (from UniProt P61224 1-166) (natural protein)”, the Kd (in general, the free concentration of one partner at which half of the binding sites on the other are occupied at equilibrium, for simple one-to-one binding) in experiment [1] worked out at 200 nM; in experiment [2], 2200 nM.

These data come from article PMC5386136.
